Substitutions are numbered along the chain they refer to.
B1: Z031 (BRA112_46) (antibody, V domains shown)
VH: EVQLLESGGGLVQPGGSLRLSCVASGFTFGSYGMAWVRQAPGKGLEWISSISSIDPSTYYADSVKGRFTVSRDNSENTLYLHMSSLKVEDTAVYFCAKDRLNGGFGELFASWGQGTLVTVSS
VL: DIQMTQSPSTLSASVGDSVTITCRASQSISSWLAWYQQKPGKAPKFLIHKASSLESGIPSRFSGSGSGTEFTLTINNLQPDDFATYYCQHYHSYPWTFGQGTKVEIK
B2: Z032 (BRA112_24) (antibody, V domains shown)
VH: EVQLLESGGRLVQPGGSLTLSCAASGFPFSTYAMSWLRQAPGKGLEWVSGITGDSGSTYYAASVKGRFTISRDNSKNTLYLQMNSLTADDTAVYYCAKDRLHSGLGELFSYWGQGTLVTVSS
VL: DIQMTQSPSTLSASVGDRVNITCRASQSINQWLAWYQQKPGKAPKFLMYKASTLETGVPSRFSGSGSGTEFTLTISSLQPDDFATYYCQHYFSYPWTFGQGTKVEIK
B3: Z035 (BRA112_71) (antibody, V domains shown)
VH: EVQLLESGGGLIQPGGSLRLSCAASGFTFSSYAMSWVRQAPGKGLEWVSGISGSGGASDNGASRYYADSVKGRFSISRDNSKNTVYLQMNSLRAEDTAVYYCAKDRLSGGFGELFQKWGQGTLVTVSS
VL: B2 VL with S12A, N20T, S28N, Q31S, M48I, T56S, V58A, F92Y, W96Y
B4: Z006 (MEX105_42) (antibody, V domains shown)
VH: EVQLLESGGGLVQPGGSLRLSCAASGFTFKNYAMAWVRQAPGKGLEWVSLLYNSEESTYYADSVKGRFTISRDNSKNTLFLQMNRLRVEDTAVYFCVRDRSNGWSSINLWGRGTLVTVSS
VL: DIQMTQSPSTLSASVGDRVTMTCRASQTISGWLAWYQQKPGKAPKLLIYQASRLESGIPSRFSGSGSGTEFTLTISSLQPDDVATYYCQQYSTFWTFGLGTKVEIK
B5: Z010 (MEX105_88) (antibody, V domains shown)
VH: EVQLLESGGGLVQPGGSLRLSCAASGFTFSNYAMAWVRQAPGKGLEWVSLIYSGDDSTYYADFVKGRFTISRHNSKNTLSLQMNSLRAEDTAIYYCVKDRGTGWSSIVHWGQGTLVTVSS
VL: B4 VL with M21I, G31N, R53S, I58V, V83F, F94Y, L99Q
B6: Z054 (BRA138_94) (antibody, V domains shown)
VH: QLQLQESGPRLVKPSETLFLTCTVSGDSISSSSYFWGWIRQPPGKGLEWIGSISYSGSTYYNPSLKSRVTISVDTSKNQFSLKLSSVTAADTVVYYCAKHLYSSSWNIGSSFDSWGPGTLVTVSS
VL: EIVLTQSPATLSLSPGERATLSCRASQSVSIYLAWYQQKPGQAPRLLIYDASSRATGIPARFSGSGSGTDFTLTISSLEPEDFAVYYCQQRSNWPVYTFGQGTKVEIK
B7: Z044 (BRA138_46) (antibody, V domains shown)
VH: QVQLVQSGAEVKKPGASVKVSCKASGYTFTSTYIHWVRQAPGQGLEWMGIINPSSSNTNYAQKFQGRVTMTRDTSTSTVYMELSSLRSEDTAVYYCARDFGGYSSSSVSDAFDIWGQGTMVTVSS
VL: QSALTQPASVSGSPGQSITISCTGTSSDVGSFNLVSWYQQHPGKAPKLIIYEVSKRPSGVSNRFSGSKSGNTASLTISGLQAEDEVHYYCCSYAGSSRFVFGTGTKVTVL
B8: Z040 (BRA12_81) (antibody, V domains shown)
VH: EVQLLESGGGLVQPGGSLRLSCAASGFTFSTYAMSWVRQAPGKGLEWVSAISGSGRSTYYADSVKGRFTISRDNSKNTLYLQMNSLRGEDTAVYYCAKSSGGHNWNYVDYYYGMDVWGQGTTVTVSS
VL: DIQLTQSPSFLSASVGDRVTITCRASQGISSYLAWYQQKPGKAPKLLIYAASTLQSGVPSRFSGSGSGTEFTLTISSLQPEDFATYYCQQLNSYPVTFGPGTKVDIK
B9: Z038 (BRA12_2) (antibody, V domains shown)
VH: EVQLLESGGGLVQPGGSLRLSCEASGFTFSNYAMNWVRQAPGKGLEWVSTLGATDNSGDSTYYVESAKGRFTISRDNSKNTLYLQMNSLRVEDTAVYFCAKDRTGNIGAGTGYFDKWGQGTLVTVSS
VL: DIQMTQSPSTLSASVGDRVTITCRASHRISGWLAWYQQKPGKAPKLLIYQASGLESGVPSRFSGSGYGTEFTLTISSLQADDFATYYCQQYNNYPWTFGQGTKVEIK
notes: also called BRA12_02
B10: Z021 (MEX84_p4-23) (antibody, V domains shown)
VH: QVQLQESGPGLVKPSETLSLTCTVSGGSIDTYYWSWIRQTPGKGLEWIGCFYYSVDNHFNPSLESRVTISVDTSKNQFSLKMTSMTASDTAVYYCARNQPGGRAFDYWGPGTLVTVSS
VL: EIVLTQSPATLSLSPGQRATLSCRASQSVSNYFAWYQQKPGQAPRLLIYDTSKRATGTPARFSGSGSGTDFTLTISSLEPEDFAVYYCQERNNWPLTWTFGLGTKVEIK
B11: Z004 (MEX18_89) (antibody, V domains shown)
VH: EVQLLESGGGLVQPGGSLRLTCATSGFTFRDYAMSWVRQAPGKGLEWVSSYSGIDDSTYYADSVKGRFTISRDNSKSTLSLHMNSLRAEDSALYFCAKDRGPRGVGELFDSWGQGTLVTVSS
VL: DIQMTQSPSTLSASVGDRVTITCRASQSISKWLAWYQQKPGKAPKLLIYTTSTLKSGVPSRFSGSGSGTEFTLTISSLQPDDFATYYCQHFYSVPWTFGQGTKVEIK
notes: also called biotin-Z004 (biotinylated form)
B12: Z028 (MEX84_p4-53) (antibody, V domains shown)
VH: EVQLLESGGGLVQPGGSLRLSCAASGFTFSAYAMSWVRQAPGKGLEWVSSINGHSDSTYFADSVKGRFTISRDNSKNTLYLQMNSLRAEDTALYYCAKDRLREGIGELFHSWGQGTLVTVSS
VL: B2 VL with V15I, N20T, N30T, Q31P, M48I, K50Q, A51T, T53I, T56S, F92H
B13: Z001 (MEX18_21) (antibody, V domains shown)
VH: EVQLLESGGGLVQPGGSRRLSCATSGFSFDTYAMSWLRQAPGKGLEWVSSFSGLDDSTYYADSVKGRFTISRDNSKNTLYLQMNSLRAEDTAIYYCAKDRGPRGIGELFDFWGQGTLVTVSS
VL: B11 VL with K31R, T50K, G57E, Y92H

Assays:
[1] = molecular target: DENV3 EDIII, polyhistidine-AviTag (DENV3); experiment: cross-reactivity ELISA
[2] = molecular target: T1, ZIKV E Domain III ([..]), polyhistidine-AviTag, produced in HEK-293-6E cells (ZIKV); experiment: ELISA on coated ZIKV EDIII
T1 construct: also called ZEDIII; ZIKV EDIII

[3] = molecular target: T2, DENV1 EDIII, polyhistidine-AviTag, produced in HEK-293-6E cells (DENV1); experiment: cross-reactivity ELISA
T2 construct: also called EDIII of DENV1

[4] = molecular target: DENV1 E protein (strain PUO-359) on RVPs or on virus (DENV1, strain PUO-359); experiment: cell-based or functional assay
[5] = molecular target: ZIKV E protein (2015 Puerto Rican PRVABC59 strain) on virus (ZIKV, strain PRVABC59); experiment: cell-based or functional assay

T2 sequence (P17763 577-674, tags left off): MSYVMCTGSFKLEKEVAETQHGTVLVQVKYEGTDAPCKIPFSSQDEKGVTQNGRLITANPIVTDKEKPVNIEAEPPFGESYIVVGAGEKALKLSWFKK

| Binder | binding result [1] | EC50 [2] | other results |
| --- | --- | --- | --- |
| B1 | no binding (tested: 10 µg/ml) |  |  |
| B2 |  | 0.0195 µg/mL |  |
| B3 | no binding (tested: 10 µg/ml) |  |  |
| B4 | no binding (tested: 10 µg/ml) |  |  |
| B5 | no binding (tested: 10 µg/ml) |  |  |
| B6 |  | > 10 µg/mL | binding result [3]: no binding (tested: 10 µg/ml) |
| B7 |  | > 10 µg/mL | binding result [3]: no binding (tested: 10 µg/ml) |
| B8 |  | > 10 µg/mL | binding result [3]: no binding (tested: 10 µg/ml) |
| B9 | no binding (tested: 10 µg/ml) |  |  |
| B10 |  |  | IC50, DENV1 neutralization (flow cytometry) [4]: 0.0101 µg/mL; IC50, plaque reduction neutralization (PRNT) [5]: 0.004 µg/mL |
| B11 | no binding (tested: 10 µg/ml) |  | IC50, DENV1 luciferase RVPs [4]: 0.0016 µg/mL; IC50, flow cytometry with authentic DENV1 [4]: 0.0164 µg/mL; IC50, plaque reduction neutralization test (PRNT) [5]: 0.0022 µg/mL |
| B12 | no binding (tested: 10 µg/ml) |  |  |
| B13 | no binding (tested: 10 µg/ml) |  |  |

Reference: US20200147199A1 (ROCKEFELLER UNIVERSITY, published 2020)
